The numbers were not newly measured in patent US20230076733A1, “Combination Therapy” (AGENCY FOR SCIENCE, TECHNOLOGY AND RESEARCH, priority 2020, published 2023), which cites them from elsewhere.

The conditions of the data set: phase 3 trials, cited from earlier work.

B1: Figitumumab (antibody, chains of the INN, looked up)
heavy: EVQLLESGGGLVQPGGSLRLSCTASGFTFSSYAMNWVRQAPGKGLEWVSAISGSGGTTFYADSVKGRFTISRDNSRTTLYLQMNSLRAEDTAVYYCAKDLGWSDSYYYYYGMDVWGQGTTVTVSSASTKGPSVFPLAPCSRSTSESTAALGCLVKDYFPEPVTVSWNSGALTSGVHTFPAVLQSSGLYSLSSVVTVPSSNFGTQTYTCNVDHKPSNTKVDKTVERKCCVECPPCPAPPVAGPSVFLFPPKPKDTLMISRTPEVTCVVVDVSHEDPEVQFNWYVDGVEVHNAKTKPREEQFNSTFRVVSVLTVVHQDWLNGKEYKCKVSNKGLPAPIEKTISKTKGQPREPQVYTLPPSREEMTKNQVSLTCLVKGFYPSDIAVEWESNGQPENNYKTTPPMLDSDGSFFLYSKLTVDKSRWQQGNVFSCSVMHEALHNHYTQKSLSLSPG
light: DIQMTQFPSSLSASVGDRVTITCRASQGIRNDLGWYQQKPGKAPKRLIYAASRLHRGVPSRFSGSGSGTEFTLTISSLQPEDFATYYCLQHNSYPCSFGQGTKLEIKRTVAAPSVFIFPPSDEQLKSGTASVVCLLNNFYPREAKVQWKVDNALQSGNSQESVTEQDSKDSTYSLSSTLTLSKADYEKHKVYACEVTHQGLSSPVTKSFNRGEC
B1: under “lung cancer, Figitumumab in combination with one chemotherapy regimen versus carboplatin or paclitaxel chemotherapy alone”, the “serious adverse events and deaths” value is 21%. For the same molecule, for the setting “Figitumumab combined with established chemotherapy regimens (carboplatin and paclitaxel)”, the survival result is given as “failed to improve survival”.
